Data from the nanobody polyreactivity screen of Harvey et al. (2022).

Assay: yeast display, Sf9 membrane polyspecificity reagent, FACS + sequencing; frameworks hold sequencing errors
Procedure, shortened: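 Using colony PCR, genes from sorted yeast display clones were amplified, then sequenced on MiSeq at 2 × 250 and filtered by CDR length. The clones had been stained with 10% biotinylated, detergent-solubilized Sf9 membrane reagent for 1 hour at 4 °C and sorted by FACS into low and high (top ~1%) gates on anti-HA and streptavidin fluorescence. Polyreactivity labels come from the gate of origin.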

Row | Sequence | polyreactivity (PSR sort gate)
1 | QVQLQESGGGMVQAGGSLRLSSAASGYISWADYMGWYRQAPGKERELVAGIGYGSTTYYADSVKGRFTISRDNAKNTAYLQMNSLKPEDTAVYYCAVGCYRDTAYKYWGQGTQVTVSS | low polyreactivity
2 | QVQLQESGGGPVLAGGSLRLSCAASGTIFVRLDMGWYRQAPGKEREFVATIGSASSTYYADSVKGSFTISRDNVKNTVYLQMNSLKPEDTAVYYCAVSAAEQSRHYYWDQGTQVTVSS | low polyreactivity
3 | QVQLQESGGGQVQAGGSLRLSCAASGTIFLYAFMAWYRQAPGKEPKLVAAIDVGTTTKYADSVKGRFTISRDNAKNTVYLQMNSLKPEDTAVYYCAAYLCYLDDLGYWGQGTQVTVSS | low polyreactivity
4 | QVQLQESGGLVQAGCLRLSCAASGSVSYHEAMGWYRQAPGKERELVATISFGANTNYADSVKGRFTISRDNAKNTVYLQMNSLKPEDTAVYYCAAESLFDDYYGYWGQGTQVTVSS | low polyreactivity
5 | QVQLQESGSGLFQAGGSLRQSCAASGAIFPAYLMGWYRQAPGKERELVAGISYGSITYCADSVKGRFNISRDNAKNTVYLKMNSLKPEDTAVFGYWGQGTQVTVSS | low polyreactivity
6 | QVQLQESGSGLVQAGGSLRLSCAASGAIFPAYLMGWYRQPPGKERELVAGISYGSITYCADSVKGRFNISRDNAKNTVYLQMNSLKPEDTAVYYCAVWRPGGDEYYYWGQGTQVTVSS | low polyreactivity
7 | QVQLQESGVCLVQAGGSPRLSCAASDNIFPDSVMCWYRQAPGKERELVATIGFGATTNYADSVKGRFTISRDNAKNTVYLQMNSLKPEDTAVYYCAADPLNYEYFCYWGQGTQVTVSS | low polyreactivity
8 | QVQLQESGVGLVQAGGSLRLSCAASGSISAVGAMGCYRQAPGQEREFAASVNWGTNTNYADSVKGRFTISRDNAKNTLYLQMNSLKPEDTAVYYCAVLPDWETRHDYWGHGTQVTVSS | low polyreactivity
9 | QVQLQESRGGLVQAGGSLRLSCAASGYISLAQTIGWYRQAPGKEREFVASIALGSSTYYTDSVKGSFTISRDNAKTTVYLQMISLQAEDTAVYYCAARVGASYAHDFWGQGTQVTVSS | low polyreactivity
10 | QVQLQESRGGLVQVGGSQRLSCAASGNIFYNYAMGWYRHANGKEREFDATINHGTSINYADSVKGRFTISRDNAKNTLYLQMNSLKPEDTAVSYCAADLSWTDNLFYWGQGTQVTVTS | low polyreactivity
11 | QVQLQESSGGLVQAGGSLRMGCAASGTIFHFHIMGWYRPAPGKEREFVAAISYGTSTYYADSVKGRFTISRDNAKNTVYLQMNSQKPEDTAVYYCAVYDYLEVYCWYWGQGTQVNVSS | low polyreactivity
12 | QVQLQESSGGLVQAGGSLRMSCAASGTNFHFHIMGWYRQAPGKEREFVAAISYGTSTYYADSVKGRFTISRDNAKNTVYLQMNSQKPEDTAVYYCAVYDYLEVYCWYWGQGTQVTVSS | low polyreactivity
13 | QVQLQETGGGLFQAGVSLRLSCATSGSIFWGNAMGWYRQSPGKDRELVAAISWGGGRTYYADSVKGRFTISRDNAKITVYLQINSLKPEDTAVYSCNTRYPYVVSTGYDYWGQGTQVTVSS | high polyreactivity
14 | QVQLQGSGGGLVQAGGSLRLSCAASGYIFQNVPMGWNRQAPGKERELVAGIDNGTSTNYADSVNGRFTISRDNAKKTVYLQMNSLKPEDTAVYYCAAAGQADNTLGYWGQGTQVTVSS | low polyreactivity
15 | QVQLQQSGDGLVQAVGSLRLSCAPSGSLSGYYSMGWYREAPGKVRELVAGIDAFGSSTNYADCVIGRFTISRDKATNTVYLQMKSLKPEDTAVYYCAARPDGVRLFSYWGQGTQVTESS | low polyreactivity
16 | QVQLQVSGGDLVQAGGSLRLSCAASGTINGLTSMGWYRQAPGKEREFVAAITDGGYTNYADSVKGRFTISRDNAKNTVYLQMISLKPEDTAVYYCAVLFSDDAYYAYWGQGTQVTVSS | low polyreactivity
17 | QVQLQVSGGGLVQAGGSLRLSCAASGSIFLTSEMGWYRQAPCKERELVAANATGTSTNYADSVKGRFTISRDNAKNTVYLQMKSLKPEDTSVYYCAAGTQAHAFVVRPIEMDYWGQGTQVTVSS | low polyreactivity
18 | QVQLVASGGGLVLAGGILRLSCAASGSTFVSNALGWYRLAPGKERALVAVITFRGGTTYYADSVKGRFTISRDNAKNTVYLQMNSLKPEDTAGYYCAARSYQYSYSFYWGQGTQVTVSS | high polyreactivity
19 | QVQLVASGGGLVQAGGSLLLSCAASGRIFAEYAMGWSRQAPGKERELVAVIDGTGGSTYYADSVKGRFTISRDNEKNTVYLLMNSLNPEDTAVYYCAATGRGSGRRFNYWGQGTQVTVSS | high polyreactivity
20 | QVQLVASGGGLVQAGGSLRLSCAASGRIFSSNAMGWSRQAPGKEWELVAAITKSGGGTYYADSVKGRFTISRDNAKNTVYLQLNSLKPEDTAVYYCAKGQYRSSGYDYWGQGTQVTVSS | low polyreactivity
21 | QVQLVASGGGLVQAGGSLRLSCAASGRTFYEYSIGWYRQAPGKERELDAGITSGGSTNYSDTVKGRFTISRDNATNPVFLLMNRLNPEDTAVYYCAAAYWGYEYDYWGQGTQVTLSS | low polyreactivity
22 | QVQLVASGGGLVQAGGSLRLSCAASGSIFRFNPMGWSRHEPGKERELVAAISQSGSSTYYADSLKGRFTISRDNAKNTVYLQMNSLKPEDTAVYYCNVYTYQPYRMDLWRQGTQVTVSS | high polyreactivity

Row | Sequence | polyreactivity (PSR sort gate)
23 | QVQLVASGGGLVQAGGSLRLSCAASGSTFRVNVMGWYRQAPGIERELVADITTSGGSTYYADSVKGRFTISRDNAMITVYLQINSLTPEDTAVYYCNTTYQSGWGPDMDYWGQGTQVTVSS | low polyreactivity
24 | QVQLVASGGGLVQAGGSLRLSCAASGTTLYYYAKGWYRQAPGKEREMGAYISSSGDRTYYADSVNGRFTISRDNAKNTVDLQMNSLKPEDTAVYYCNAYLYVSGLDYATYSLGYWGQGTQVTVSS | low polyreactivity
25 | QVQLVASGGGLVQAGGSLRLTCAASGITSWYYAMGWYRQAPGKERELVAAITSDGSTYYADSVKGRFTISRDNAKNTVYLQMNSLNPEDTAVYYCAAERDYWIPDSYLVVMDYWGQGTQVTVSS | low polyreactivity
26 | QVQLVDSAGGLVQAGGSLRLSCAAYGRTNYLYSMGWYRQAPGKERELVAAIRTGDGSTYYADSVKGRFTISRDNAKNTVYLQMISLKPEDTAVYYCAARVGKRYNWGQGTQVTVSS | high polyreactivity
27 | QVQLVDSGGCLVQAGGSLRLSCAASGSTFPTYAMGWYRQAPGKERELVAAITWSGGSTYYADSVKGRFTISRDNAKNTVYLQMNSLKPEDTAVYYCADSAYVQPYDYWGQGTQVTVSS | high polyreactivity
28 | QVQLVDSGGGFFQAGGSLRLSCAPSGITFVVYAMGWYRQAPGKERDLVAAITAGGSTYADSVKGRFTISRDNAKTTVYLQMNSLKPEDTAVYDCNTGLYLYVGLGDHDYWGQGTQVTVSS | low polyreactivity
29 | QVQLVDSGGGLDQAGGSLRLSCAASGSIFVSEYDMVWYIQAPGKERELVARSRWSSGSTYYADSVKGRFSISRDYAKNTVYVQMNSLKPEDTAVYYCNTVRTRERTDYDYWGQGTQVTVSS | low polyreactivity
30 | QVQLVDSGGGLDQAGGSLRLSCAASGSTFYYNAMGWYRQPPGKARELVARISRSGGSTYADSVKGRFTISRDNAMNTVYLQMNSLKPEDTAVYYCNADADGTPEFTSYSVRYDYWGQGSQVTVSS | low polyreactivity
31 | QVQLVDSGGGLLQAGGSLRLSCAASGNIFGRYAMGWYRQAPGKEREFVATITYSGGSTYYADSVKGRFTISRDNAKNTVYLQMNSLKPEDTAVYYCAARVGRPSLVAAKYDYWGQGTQVTVSS | high polyreactivity
32 | QVQLVDSGGGLLQAGGSLRLSCAASGRTCRGYAMGWYRQAPGKEWELVAAITSGGSTNYADSVKGRFTISRDNATNTVSIQMNRLKPEETAVYYCAAGRSTGQYRYYFWGLGTQVTVSS | high polyreactivity
33 | QVQLVDSGGGLLQAGGSLRLSCAASGSTFVAYAMGWYRQAPGKEREFVAGISSSTGGTRYADSVKGRFTISRDNAKNTVYLQMNSLKPEDSAVYYCAADLYFYYVWIRVYWGQGTQVTVSS | low polyreactivity
34 | QVQLVDSGGGLVLAGGSLRLSCAASGRTFAYYVMGWYREAPGKERELVAAISGRGGRTNYADSVKGRFTISRDNANNTVFLQMNSLKPEDTAVYYFAADLKLGTFNYWGQGTQVTVSS | high polyreactivity
35 | QVQLVDSGGGLVQAGCSLRLSCPASGGTFGYYAMGWYRQAPGKERELVAGINYSGGRTYYADSVKGRFTISRDNAMNTVYLKMDSLKPEDTAVYYCAAQAYVGYRGYDYWVQGTQVTVSS | high polyreactivity
36 | QVQLVDSGGGLVQAGGILSLSCASSGRTFYRYAMGWYRQAPGKERELVAAISATGCSTYYADSVKGRFTISRDNEKNTGYFQMNIMKPEDSAVDYCARGGTTLYWGQGTQLTVSS | high polyreactivity
37 | QVQLVDSGGGLVQAGGRLLLSCSDSGINIPYYAMGWYRQAPGKERELVASISYDGTSSYYADSVKGRFTISRDNAKNTVYLHLNSLKPEDTAVYYCAPVPWWPRASYSMDYWGQGTQVTLSS | low polyreactivity
38 | QVQLVDSGGGLVQAGGRLRLSCAASGFIIDWNTKGWYRQAPGKERELVAAITESSGSTYYADSVKGRFTISRDNAKNTVYLLMNSLKPVDTAVYYCGAELDVSVCFVSRFHFDYWGQGTQVTVSS | low polyreactivity
39 | QVQLVDSGGGLVQAGGRLRLSSAPTGSTFYVYLMGGYRQAHGKERELVAVIDWLGGSTYYADSVKGRFTISRDNAKNTVYLQLNSLKPEDTAVYYCYKDAQFYYNLPYYKERDWGQGTQVTVSS | low polyreactivity
40 | QVQLVDSGGGLVQAGGSHRLSCAASGRIFVAYAMGWYRQAPGKERELVAGISRGGSTYYADSVKGRFTISRDNAKNTVYLQMNSLKPEDTAVYYCATDQRVRRYDYWGQGTQVTVSS | low polyreactivity
41 | QVQLVDSGGGLVQAGGSHRLSCAASGSTFRRNAMGWYRQAPGKERELVAAITRGGSTNYADSVKGRFTISRDNAKNTVYLQMNSLNPEDTAVYYCARVYLGAYRERYVYPYDYWGQGTQVTVSS | high polyreactivity
42 | QVQLVDSGGGLVQAGGSISLSCAASGRTFFVNAMGWYRQAPGKERELVAAITRRGGITYYADSVKGRFTISRDNAKNTVYLQMNSLKPEDTAVYYCAADRSYYPDTRTTYGYNYWGQGTQVTVSS | low polyreactivity
43 | QVQLVDSGGGLVQAGGSLPLSCAASGSILLPYAMGWYRQAPGKERELVAALSQRGGSTYYADSVKGRFTISRDNAKNTVYLQMNSLKPEDTAVYYCNAVGGEHTPSQAFAGYDYWGQGTQVTVSS | low polyreactivity
